Assay results from IntAct's records for PubMed 19940246.

B1: Sigma-O factor regulatory protein RsoA (Bacillus subtilis), C0H3R4 (parent)
chain: MDGQFEQKKKQKDETYDIEHLIACFSPMIRKKLSNTSYQEREDLEQELKIKMFEKADMLLCQDVPGFWEFILYMVDENS
B2: DNA-directed RNA polymerase subunit beta (Bacillus subtilis), P37870 (parent)
chain: MTGQLVQYGRHRQRRSYARISEVLELPNLIEIQTSSYQWFLDEGLREMFQDISPIEDFTGNLSLEFIDYSLGEPKYPVEESKERDVTYSAPLRVKVRLINKETGEVKDQDVFMGDFPIMTDTGTFIINGAERVIVSQLVRSPSVYFSGKVDKNGKKGFTATVIPNRGAWLEYETDAKDVVYVRIDRTRKLPVTVLLRALGFGSDQEILDLIGENEYLRNTLDKDNTENSDKALLEIYERLRPGEPPTVENAKSLLDSRFFDPKRYDLANVGRYKINKKLHIKNRLFNQRLAETLVDPETGEILAEKGQILDRRTLDKVLPYLENGIGFRKLYPNGGVVEDEVTLQSIKIFAPTDQEGEQVINVIGNAYIEEEIKNITPADIISSISYFFNLLHGVGDTDDIDHLGNRRLRSVGELLQNQFRIGLSRMERVVRERMSIQDTNTITPQQLINIRPVIASIKEFFGSSQLSQFMDQTNPLAELTHKRRLSALGPGGLTRERAGMEVRDVHYSHYGRMCPIETPEGPNIGLINSLSSYAKVNRFGFIETPYRRVDPETGKVTGRIDYLTADEEDNYVVAQANARLDDEGAFIDDSIVARFRGENTVVSRNRVDYMDVSPKQVVSAATACIPFLENDDSNRALMGANMQRQAVPLMQPEAPFVGTGMEYVSGKDSGAAVICKHPGIVERVEAKNVWVRRYEEVDGQKVKGNLDKYSLLKFVRSNQGTCYNQRPIVSVGDEVVKGEILADGPSMELGELALGRNVMVGFMTWDGYNYEDAIIMSERLVKDDVYTSIHIEEYESEARDTKLGPEEITRDIPNVGEDALRNLDDRGIIRIGAEVKDGDLLVGKVTPKGVTELTAEERLLHAIFGEKAREVRDTSLRVPHGGGGIIHDVKVFNREDGDELPPGVNQLVRVYIVQKRKISEGDKMAGRHGNKGVISKILPEEDMPYLPDGTPIDIMLNPLGVPSRMNIGQVLELHMGMAARYLGIHIASPVFDGAREEDVWETLEEAGMSRDAKTVLYDGRTGEPFDNRVSVGIMYMIKLAHMVDDKLHARSTGPYSLVTQQPLGGKAQFGGQRFGEMEVWALEAYGAAYTLQEILTVKSDDVVGRVKTYEAIVKGDNVPEPGVPESFKVLIKELQSLGMDVKILSGDEEEIEMRDLEDEEDAKQADGLALSGDEEPEETASADVERDVVTKE
partner: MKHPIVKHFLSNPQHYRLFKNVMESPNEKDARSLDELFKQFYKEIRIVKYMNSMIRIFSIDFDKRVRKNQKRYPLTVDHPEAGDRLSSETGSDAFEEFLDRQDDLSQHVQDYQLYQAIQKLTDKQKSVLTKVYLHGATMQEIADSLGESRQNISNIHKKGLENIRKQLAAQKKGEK

Variants of: B1
Details: with rpoc_bacsu rpoC

Row | Variant | effect of a mutation on the interaction
1 | MDGQFEQKKKQKDETYDIEHLIACFSPMIRKKLSNTSYQEAEDLEQELKIKMFEKADMLLCQDVPGFWEFILYMVDENS [R41A] | decreasing interaction
2 | MDGQFEQKKKQKDETYDIEHLIACFSPMIRKKLSNTSYQERENLEQELKIKMFEKADMLLCQDVPGFWEFILYMVDENS [D43N] | decreasing interaction strength
3 | MDGQFEQKKKQKDETYDIEHLIACFSPMIRKKLSNTSYQEREALEQELKIKMFEKADMLLCQDVPGFWEFILYMVDENS [D43A] | decreasing interaction strength
4 | MDGQFEQKKKQKDETYDIEHLIACFSPMIRKKLSNTSYQEREDLEAELKIKMFEKADMLLCQDVPGFWEFILYMVDENS [Q46A] | decreasing interaction strength
5 | MDGQFEQKKKQKDETYDIEHLIACFSPMIRKKLSNTSYQEREDLEEELKIKMFEKADMLLCQDVPGFWEFILYMVDENS [Q46E] | decreasing interaction strength
6 | MDGQFEQKKKQKDETYDIEHLIACFSPMIRKKLSNTSYQEREDEEQELKIKMFEKADMLLCQDVPGFWEFILYMVDENS [L44E] | decreasing interaction strength
7 | MDGQFEQKKKQKDETYDIEHLIACFSPMIRKKLSNTSYQEREDAEQELKIKMFEKADMLLCQDVPGFWEFILYMVDENS [L44A] | decreasing interaction strength

Variants of: B2
Details: with sigo_bacsu sigO

Row | Variant | effect of a mutation on the interaction
8 | I864K | disrupting interaction
9 | F865K | decreasing interaction
